Results taken from patent publication US20180312587A1 (ADURO BIOTECH HOLDINGS EUROPE B V, published 2018).

Target: T1, hSIRP-VγC1βC2β (human, UniProt O00241 30-398)
T1 chain: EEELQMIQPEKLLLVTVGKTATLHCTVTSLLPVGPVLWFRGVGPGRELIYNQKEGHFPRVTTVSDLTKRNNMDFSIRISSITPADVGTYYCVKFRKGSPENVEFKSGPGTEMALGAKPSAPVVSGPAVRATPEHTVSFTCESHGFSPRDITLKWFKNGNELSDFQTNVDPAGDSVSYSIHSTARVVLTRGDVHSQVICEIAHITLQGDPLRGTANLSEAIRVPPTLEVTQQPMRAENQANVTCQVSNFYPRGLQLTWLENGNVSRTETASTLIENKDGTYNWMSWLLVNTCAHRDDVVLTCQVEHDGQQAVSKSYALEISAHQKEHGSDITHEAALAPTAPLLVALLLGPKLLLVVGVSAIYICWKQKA
Experiment: CELISA, CHO-K1 transfectants, domain exchange study
Text: Based on the fold of SIRPα/β1/γ, the extracellular region can be subdivided into three separate domains: the Ig-like (immunoglobulin-like) V-type (IgV), Ig-like C1-type (IgC1), and Ig-like C2-type (IgC2) domain. The IgV domain is also known as the ligand-binding N-terminal domain of SIRPα and SIRPγ (which binds to CD47). The human SIRPβ1/γ mutants were designed based on the full length hSIRPβ1 sequence (SEQ ID NO: 38) and each individual Ig-like domain was substituted for the equivalent domain of human SIRPγ (SEQ ID NO: 40). […] Binding of hSIRPα.40A to the exchange mutants was tested using CELISA. To this end, CHO-K1 cells were transiently transfected, using Lipofectamine 2000, with the pCI-neo vectors encoding hSIRPαV1, hSIRPαV2, hSIRPβ1, hSIRP-VγC1βC2β, hSIRP-VβC1γC2β, and hSIRP-VβC1βC2γ, respectively. The transfected cells were cultured at 37° C., 5% CO₂ and 95% humidity in medium (DMEM-F12 (Gibco) with 5% New Born Calf serum (Biowest) and Pen/Strep (Gibco)) until confluent. Subsequently, cells were trypsinized and seeded in 96-well flat-bottom tissue culture plates and cultured at 37° C., 5% CO₂ and 95% humidity in culture medium until confluent. Then, culture medium was removed and cells were incubated for 1 hour at 37° C., 5% CO₂ and 95% humidity with hSIRPα.40A, hSIRPα.50A, and anti-hSIRPα clone SE5A5 antibodies. Next, cells were washed with PBS-T and incubated for 1 hour at 37° C., 5% CO₂ and 95% humidity with goat-anti-mouse IgG-HRP conjugate (Southern Biotech). After that, cells were washed three times with PBS-T and anti-hSIRPα immunoreactivity was visualized with TMB Stabilized Chromogen (Invitrogen). Reactions were stopped with 0.5 M H₂SO₄ and absorbances were read at 450 and 610 nm.

B1: hSIRPα.50A (antibody, V domains shown)
VH: QVQLQQSGPELVKPGASVRISCKASGFTFTNYYIHWVKQRPGQGLEWIGWIYPGNVNTKYNEKFKAKATLTADKSSTTAYMQLSSLASEDSAVYFCARPTIIATDFDVWGAGTTVTVSS
VL: DIVMTQSHKFMSTSVGDRVNITCKASQGVGTAVGWYQQKPGQSPRLLIYWASTRHTGVPDRFTGSGSGTDFSLAISNVQSEDLADYFCQQYSTYPFTFGGGTNLEIK
notes: light chain constant domain not tied; also called mouse hSIRPα.50A; hSIRPα.50A.mIgG1
- EC50: 2.52 nM
